The numbers were not newly measured in article PMC6307816, which cites them from elsewhere.

pKd: −log10 of the molar value.

This data set deals with EGFR (Homo sapiens) (UniProt P00533).

Turning to EGF (from UniProt P01133), the pKd is more than 9.70.

In general, pKd refers to the negative decadic logarithm of the Kd, by convention in mol/L.
